In paper doi:10.1101/2024.09.22.614354 (bioRxiv, 2024):

Key:
Experiment in all cases: fluorescence polarisation
Rb^P S534R = molecular target: T1, Rb^P S534R (human, UniProt P06400 380-788, S534R)
T1 sequence: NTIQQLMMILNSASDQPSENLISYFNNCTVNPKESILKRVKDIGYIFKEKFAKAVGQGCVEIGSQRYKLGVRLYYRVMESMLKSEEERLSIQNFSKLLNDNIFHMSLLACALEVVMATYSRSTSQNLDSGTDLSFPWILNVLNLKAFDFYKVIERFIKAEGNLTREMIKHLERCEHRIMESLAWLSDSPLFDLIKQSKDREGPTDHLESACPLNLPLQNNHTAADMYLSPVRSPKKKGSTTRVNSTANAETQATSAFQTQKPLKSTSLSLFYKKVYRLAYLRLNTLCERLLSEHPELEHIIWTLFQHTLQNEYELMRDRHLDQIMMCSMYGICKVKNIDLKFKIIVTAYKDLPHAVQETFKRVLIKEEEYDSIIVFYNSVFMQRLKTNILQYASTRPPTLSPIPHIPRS

Rb^P R763T = molecular target: T2, Rb^P R763T (human, UniProt P06400 380-788, R763T)
T2 sequence: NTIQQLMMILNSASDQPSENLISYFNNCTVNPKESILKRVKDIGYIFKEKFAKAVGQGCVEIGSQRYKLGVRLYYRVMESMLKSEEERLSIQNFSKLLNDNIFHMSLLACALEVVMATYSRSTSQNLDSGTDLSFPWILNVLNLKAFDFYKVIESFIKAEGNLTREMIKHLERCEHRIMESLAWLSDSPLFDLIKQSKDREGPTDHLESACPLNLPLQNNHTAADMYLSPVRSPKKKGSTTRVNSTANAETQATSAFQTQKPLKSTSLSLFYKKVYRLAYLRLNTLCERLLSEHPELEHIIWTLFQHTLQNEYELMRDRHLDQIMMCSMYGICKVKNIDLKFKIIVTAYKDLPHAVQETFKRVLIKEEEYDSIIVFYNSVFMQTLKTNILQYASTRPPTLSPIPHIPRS

Rb^P K530I = molecular target: T3, Rb^P K530I (human, UniProt P06400 380-788, K530I)
T3 sequence: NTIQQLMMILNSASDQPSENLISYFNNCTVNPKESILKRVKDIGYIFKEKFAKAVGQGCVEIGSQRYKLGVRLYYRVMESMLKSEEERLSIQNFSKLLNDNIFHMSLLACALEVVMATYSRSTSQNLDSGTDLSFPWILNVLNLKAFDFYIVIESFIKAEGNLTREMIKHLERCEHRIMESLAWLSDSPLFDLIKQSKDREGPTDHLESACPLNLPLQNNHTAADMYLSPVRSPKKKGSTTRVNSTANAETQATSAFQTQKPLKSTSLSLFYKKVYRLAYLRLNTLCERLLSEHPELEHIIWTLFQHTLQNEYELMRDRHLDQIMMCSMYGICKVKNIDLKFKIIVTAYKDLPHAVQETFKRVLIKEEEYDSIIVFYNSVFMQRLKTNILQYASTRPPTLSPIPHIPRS

Rb^P A525G = molecular target: T4, Rb^P A525G (human, UniProt P06400 380-788, A525G)
T4 sequence: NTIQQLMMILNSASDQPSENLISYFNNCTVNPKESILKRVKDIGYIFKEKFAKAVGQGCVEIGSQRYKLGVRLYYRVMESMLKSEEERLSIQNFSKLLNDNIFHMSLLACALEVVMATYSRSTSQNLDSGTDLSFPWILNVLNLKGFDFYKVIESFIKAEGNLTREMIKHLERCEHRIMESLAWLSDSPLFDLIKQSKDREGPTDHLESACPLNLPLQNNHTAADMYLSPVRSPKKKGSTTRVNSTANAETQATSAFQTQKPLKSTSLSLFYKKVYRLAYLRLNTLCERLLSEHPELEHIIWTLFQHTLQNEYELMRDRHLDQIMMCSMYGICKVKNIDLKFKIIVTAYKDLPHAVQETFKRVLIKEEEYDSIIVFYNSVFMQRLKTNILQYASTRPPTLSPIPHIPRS

Rb^P M695I = molecular target: T5, Rb^P M695I (human, UniProt P06400 380-788, M695I)
T5 sequence: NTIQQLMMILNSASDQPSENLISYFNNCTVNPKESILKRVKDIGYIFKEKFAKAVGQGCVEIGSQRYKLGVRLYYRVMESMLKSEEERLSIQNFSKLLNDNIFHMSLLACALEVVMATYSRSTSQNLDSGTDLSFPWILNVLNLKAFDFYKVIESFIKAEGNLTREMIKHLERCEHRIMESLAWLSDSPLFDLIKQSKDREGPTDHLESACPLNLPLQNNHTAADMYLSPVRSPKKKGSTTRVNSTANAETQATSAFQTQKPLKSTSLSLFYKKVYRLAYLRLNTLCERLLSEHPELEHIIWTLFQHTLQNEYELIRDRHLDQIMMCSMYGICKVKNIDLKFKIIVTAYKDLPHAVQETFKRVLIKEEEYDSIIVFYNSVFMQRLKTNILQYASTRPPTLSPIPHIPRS

Measured: binding result

DLYCYEQLN (not fully specified; TMR fluorescent label (TMR-E7^LxCxE)) [TMR-E7^LxCxE (LxCxE peptide of the E7 oncoprotein from HPV, TMR-labeled)]
binds: all assays above
